Experiment [1] addresses BST2 as expressed endogenously on the surface of human cell lines (B-LCL, MM1, U266, MCF-10A, MCF7, MDA-MB-231, T47D) (human) (UniProt Q10589). Kind of experiment: flow cytometry on MM1 cells, mAb 1 ug/ml. Background: In flow cytometry, cells or beads pass a laser one at a time.
Experiment [2] has the same target. Briefly: flow cytometry on U266 cells, mAb 1 ug/ml.
For experiment [3] the target is unchanged. Briefly: flow cytometry on MCF7 cells, mAb 1 ug/ml.
The target is the same in experiment [4]. Kind of experiment: flow cytometry on T47D cells, mAb 1 ug/ml.
Experiment [5] has the same target. Briefly: flow cytometry on B-LCL cells, mAb 1 ug/ml.
Experiment [6] shares this target. Kind of experiment: flow cytometry on MCF-10A cells, mAb 1 ug/ml.
For experiment [7] the target is unchanged. Kind of experiment: flow cytometry on MDA-MB-231 cells, mAb 1 ug/ml.
For experiment [8] the target is unchanged. Kind of experiment: flow cytometry on MM1 cells, mAb not preincubated.
Experiment [9] addresses T1, BST2 long isoform (BST2-D, full length BST2, 180 amino acids) expressed on HEK293 transfectants (human, UniProt Q10589 1-161).
T1 construct: also called HEK293-long; HEK293 WT-BST2
Kind of experiment: flow cytometry, hybridoma supernatant on HEK293-long cells. On the procedure: For flow cytometry assays, cells were detached using 0.05% trypsin-EDTA, counted, washed and resuspend with FACS Buffer (PBS, 2% FBS, 2 mM EDTA). 2×10⁵ cells in 100 ul/well were placed in U-bottom 96-well plate and centrifuged (1000 RPM/3 min/4° C.). The buffer was discarded and 100 ul of the previously collected supernatants with selected monoclonal antibodies were added to the wells and incubated on ice for 30 minutes. After incubation, the plate was washed three times with FACS buffer and 50 ul of diluted (1/250) secondary antibody (Donkey anti-mouse Allophycocyanin (APC) conjugated) were added to the wells and incubated on ice for 20 minutes protected from light. The final wash was repeated 4 times, and the samples were transferred and analyzed at the South Campus Flow Cytometry & Cell Sorting Core Laboratory at MD Anderson Cancer Center. FACS data were analyzed with FlowJo™ Software—for Windows (Version 10.6.1. Ashland, Oreg.: Becton, Dickinson and Company; 2020).

For experiment [10], the target named is BST2 as expressed endogenously on the surface of human cell lines (B-LCL, MM1, U266, MCF-10A, MCF7, MDA-MB-231, T47D) (human) (UniProt Q10589). Kind of experiment: flow cytometry on MM1 cells, mAb preincubated 10 min with Spartan protein (5 ug/ml).
Experiment [11] has as its target T2, Spartan protein (SprT-like domain-containing protein) (human, UniProt Q9H040 1-489, limits assumed).
T2 construct: Irrelevant protein control in the preincubation assay; also called Spartan irrelevant protein; irrelevant protein
T2 sequence (looked up): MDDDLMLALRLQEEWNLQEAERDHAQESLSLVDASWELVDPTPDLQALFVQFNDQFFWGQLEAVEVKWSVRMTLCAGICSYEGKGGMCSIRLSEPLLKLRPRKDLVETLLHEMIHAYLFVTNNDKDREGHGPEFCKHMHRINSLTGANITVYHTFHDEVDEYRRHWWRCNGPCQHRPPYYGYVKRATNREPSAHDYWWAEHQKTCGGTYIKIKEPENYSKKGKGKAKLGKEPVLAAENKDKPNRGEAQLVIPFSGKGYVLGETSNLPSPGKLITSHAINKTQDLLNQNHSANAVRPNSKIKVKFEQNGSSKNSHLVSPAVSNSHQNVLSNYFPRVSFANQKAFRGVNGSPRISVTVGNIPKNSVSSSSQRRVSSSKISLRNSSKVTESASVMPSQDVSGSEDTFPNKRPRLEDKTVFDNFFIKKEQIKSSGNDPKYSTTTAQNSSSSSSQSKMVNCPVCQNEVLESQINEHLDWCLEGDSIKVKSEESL
Kind of experiment: flow cytometry of MM1 cells after preincubation of the mAb with Spartan protein. As to the method: A specificity assay was performed and analyzed through flow cytometry staining of MM1, a multiple myeloma cell line. In this assay, changes in the binding of the LA5 mAb to the BST2 receptor expressed on MM1 cell lines were assessed after:
As part of the characterization of the selected antibody candidate, the inventors analyzed the specificity of the new antibody by flow cytometry staining of a cell line, constitutively expressing BST2, competing the antibody binding to the cells with a recombinant BST2 protein and an irrelevant target. Staining of MM1, a multiple myeloma cell line, was assessed at different conditions to test the binding specificity of the generated monoclonal antibodies. Anti-BST2-long (clone LA5) was pre-incubated with BST2 protein for 10 minutes, before being transferred to U-bottom wells plate containing MM1 cells. […] Alternatively, Spartan protein, or SprT-like domain-containing protein, a human DNA-binding metalloprotease with 489 amino acid length and involved in the response to DNA replication errors (34, 35) was used as an irrelevant protein.

The target of experiment [12] is BST2 as expressed endogenously on the surface of human cell lines (B-LCL, MM1, U266, MCF-10A, MCF7, MDA-MB-231, T47D) (human) (UniProt Q10589). Kind of experiment: flow cytometry on MM1 cells, mAb preincubated 10 min with recombinant BST2 protein (5 ug/ml) as competitor.
Experiment [13] deals with T3, Recombinant human BST2 protein (Catalog number 13370-H07H, Sino Biological) (human, UniProt Q10589 49-161).
T3 construct: Bought soluble protein; also called full length recombinant BST2 protein; full-length BST2 protein
T3 sequence (looked up): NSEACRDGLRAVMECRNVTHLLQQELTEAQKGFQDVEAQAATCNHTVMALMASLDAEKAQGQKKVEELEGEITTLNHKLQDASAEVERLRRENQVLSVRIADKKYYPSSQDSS
Kind of experiment: BLI (Octet RED384), mAb 5 ug/ml captured on anti-mouse IgG Fc (AMC) biosensors, BST2 protein 15.625-1000 nM, 1:1 model, global fit. On the procedure:
Binding kinetics of the anti-BST2-long mAb clone LA5 was assessed, using Octet RED384 platform system. Briefly, antibodies were captured, as described under methods, by specific biosensors that bind the Fc region of the antibody. Based on prior experiments and certain standard operations procedures, 5 ug/ml was selected as the fixed concentration for the mAb. Various concentrations of the full length recombinant BST2 protein were used to assess the antibody affinity. The interaction was analyzed with a 1:1 binding model, involving both the association and the dissociation steps.
(In general: In BLI a coated tip is dipped into the sample, and binding shifts an interference pattern.)

The term Kd denotes the constant that tells how readily two partners part at equilibrium. As a reminder, the koff is the first-order rate constant of dissociation. The term kon denotes the rate constant with which the complex forms.

B1: anti-BST2-long monoclonal antibody clone LA5 (antibody, mouse IgG1, V domains shown)
VH: EVQLQQSGAELVRSGASVNLSCTASGFNIKDYYIHWVKQRPERGLEWIGWIDPENGDTEYAPEFQGKASMTADTSSNTAYLQLSSLTSEDTAVYYCKRGDWGQGTLVTVSA
VL: DVLMTQTPLSLPVSLGDQASISCRSSQSIVHSNGNTYLEWFLQKPGQSPKLLIYKVSNRFSGVPDRFSGSGSGTDFTLKISRVEAEDLGVYYCFQGSHAPFTFGSGTELEIK
notes: Mouse hybridoma antibody; Used as hybridoma supernatant in the screening assays and as Protein A purified mAb afterwards; also called LA5 mAb; MAb LA5
As for B1, the percentage of cell staining stood at 98.6% in experiment [1]; 96.1% in experiment [2]; 0.43% in [3]; 2.6% in experiment [4]; 99.3% in [5]; 2.4% in experiment [6]. The molecule also showed a percentage of cell staining in experiment [7] of 1%. The staining percentage of the MM1 cells was found to be 85.2% in experiment [8], 83.9% in experiment [10] and 5.01% in [12]. In addition, in experiment [9], the “percentage of cells stained” value came out at 58.3%. For the same molecule, the binding result in [11] is given as “no binding (tested: 5 ug/ml)”. Further, in experiment [13], the Kd is 4.61 nM. Further, the koff in [13] was 0.000921 s⁻¹. For the same molecule, the kon in experiment [13] is 200000 M⁻¹ s⁻¹.

(Values after US20230235074A1 (University of Texas, published 2023).)
